Patent US20210277101A1 (UNIVERSIT LAVAL, published 2021)

Key:
[1] = target: T1, S100A9 C-term (C) peptide (human); experiment: dot blot on PVDF
T1 construct: also called C-terminal peptide
T1 peptide: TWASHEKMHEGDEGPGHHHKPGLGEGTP
Procedure: FIG. 7 illustrates that 6B4 recognizes the C-terminal peptide of S100A9. Recombinant S100A8 and S100A9 (1 μg), PBS1×, N-terminal (N), Hinge (H) and C-terminal (C) peptides (10 and 50 μg) were put onto PVDF membrane to perform dot blot analysis using the mAb 6B4.
A dot blot was first performed to verify the ability of the mAb 6B4 to recognize these regions of S100A9. Briefly, 1 μg of recombinant S100A9 or S100A8 (negative control), and 10 and 50 μg of S100A9 peptides were deposited on PVDF membrane. The dried membrane was then blocked with TBS/0.1% Tween/milk 5% 30 min at room temperature under gentle agitation and labelled with 1 μg/ml of 6B4 mAb for 1 hr at RT. The membrane was extensively washed with TBS/0.1% Tween, then labelled with goat anti-mouse ( 1/20 000) in blocking buffer for 1 hr at RT under gentle agitation. The membrane was then extensively washed and visualized by enhanced chemiluminescence (ECL) as described by the manufacturer (PerkinElmer).

S100A9 peptide C7 = target: T2, S100A9 peptide C7 (human); experiment: direct ELISA on coated peptides
T2 construct: also called 10 last amino acid of the C-terminal region of S100A9
T2 peptide: HKPGLGEGTP

S100A9 peptide C7a = target: T3, S100A9 peptide C7a (human); experiment: direct ELISA on coated peptides
T3 peptide: PGLGEGTP

binding result [1]: binds
binding result (S100A9 peptide C7): binds
binding result (S100A9 peptide C7a): binds
B1: mouse monoclonal antibody 6B4 (antibody, IgG1, V domains shown)
VH: QVQLQQPGSELVRPGASVKLSCKASGYTFTTYWIHWVRQRPGQGLEWIGNIYPGGDSSNYDEKVKSRATLTVDTSSSTAYMQLSSLTSEDSAVYYCSRWGIWGQGTLVTVSA
VL: ENVLTQSPAIMSASPGEKVTMTCSARSSVSYVHWYQQKSNTSPKLWIYDTSKLASGVPGRFSGSGSGNSYSLTISSMEAEDVATYYCFQGSGYPLTFGAGTKLELK
notes: also called mAb 6B4; 6B4 mAb
